Measurements reported in patent publication US7067277B1, “Chimeric G proteins and uses thereof” (H. Lundbeck A/S, priority 1999, dated 2006).
Numbering of substitutions follows the chain as printed.

T1: Rat Y1 (Rattus norvegicus, UniProt P21555)
T1 construct: linearized plasmids or PCR products containing the complete coding region of the genes; expressed in transfected cells; host or cells: Xenopus laevis oocytes (receptor cRNA injected)
T1 sequence (P21555 1-382): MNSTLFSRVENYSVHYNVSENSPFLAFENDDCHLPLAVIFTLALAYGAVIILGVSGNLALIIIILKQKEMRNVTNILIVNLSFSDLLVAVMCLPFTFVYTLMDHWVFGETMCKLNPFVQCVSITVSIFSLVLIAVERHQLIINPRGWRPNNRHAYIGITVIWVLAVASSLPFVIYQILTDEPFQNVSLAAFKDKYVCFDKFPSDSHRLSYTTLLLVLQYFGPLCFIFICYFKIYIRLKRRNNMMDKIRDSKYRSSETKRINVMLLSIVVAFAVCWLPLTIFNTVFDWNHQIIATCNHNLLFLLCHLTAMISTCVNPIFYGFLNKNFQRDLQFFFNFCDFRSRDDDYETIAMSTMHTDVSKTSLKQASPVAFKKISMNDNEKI

T2: r GALR1 (Rattus norvegicus, UniProt Q62805)
T2 sequence (Q62805 1-346): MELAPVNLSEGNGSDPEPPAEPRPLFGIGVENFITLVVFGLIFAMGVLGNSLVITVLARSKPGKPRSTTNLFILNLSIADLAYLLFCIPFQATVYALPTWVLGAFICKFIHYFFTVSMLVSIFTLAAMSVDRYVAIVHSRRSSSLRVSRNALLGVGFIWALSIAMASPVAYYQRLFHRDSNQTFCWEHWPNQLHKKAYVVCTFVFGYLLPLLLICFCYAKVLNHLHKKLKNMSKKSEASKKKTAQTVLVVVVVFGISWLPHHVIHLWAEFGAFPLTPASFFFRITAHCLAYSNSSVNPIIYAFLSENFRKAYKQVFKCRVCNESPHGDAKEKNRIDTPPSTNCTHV

B1: cGαq/z5: chimeric Gα subunit: C-terminal final 5 amino acids of C. elegans Gαq replaced with those of hGαz (SEQ ID NO: 1) (protein)
chain: MACCLSEEAREQKRINQEIEKQLQRDKRNARRELKLLLLGTGESGKSTFIKQMRIIHGQGYSEEDKRAHIRLVYQNVFMAIQSMIRAMDTLDIKFGNESEELQEKAAVVREVDFESVTSFEEPYVSYIKELWEDSGIQECYDRRREYQLTDSAKYYLSDLRRLAVPDYLPTEQDILRVRVPTTGIIEYPFDLEQIIFRMVDVGGQRSERRKWIHCFENVTSIMFLVALSEYDQVLVECDNENRMEESKALFRTIITYPWFTNSSVILFLNKKDLLEEKILYSHLADYFPEYDGPPRDPIAAREFILKMFVDLNPDADKIIYSHFTCATDTENIRFVFAAVKDTILQHNLKYIGLC
modifications: C. elegans
B2: cGαq/z9: C. elegans Gαq with Gαz portion of the C-terminal tail extended to 9 amino acids (SEQ ID NO: 2) (protein)
chain: B1 chain with H347N
modifications: C. elegans

What was measured:
Type in all cases: cell-based
[1] = biological target: T3, Human NPFF1 (Homo sapiens, UniProt Q9GZQ6); test: Cl- current recording in Xenopus oocytes expressing GPCR and chimeric G protein; details: Xenopus oocytes expressing Human NPFF1 and chimera, 1 μM NPFF, mean ± s.e.m
T3 construct: linearized plasmids or PCR products containing the complete coding region of the genes; expressed in transfected cells; host or cells: Xenopus laevis oocytes (receptor cRNA injected)
T3 sequence (Q9GZQ6 whole entry): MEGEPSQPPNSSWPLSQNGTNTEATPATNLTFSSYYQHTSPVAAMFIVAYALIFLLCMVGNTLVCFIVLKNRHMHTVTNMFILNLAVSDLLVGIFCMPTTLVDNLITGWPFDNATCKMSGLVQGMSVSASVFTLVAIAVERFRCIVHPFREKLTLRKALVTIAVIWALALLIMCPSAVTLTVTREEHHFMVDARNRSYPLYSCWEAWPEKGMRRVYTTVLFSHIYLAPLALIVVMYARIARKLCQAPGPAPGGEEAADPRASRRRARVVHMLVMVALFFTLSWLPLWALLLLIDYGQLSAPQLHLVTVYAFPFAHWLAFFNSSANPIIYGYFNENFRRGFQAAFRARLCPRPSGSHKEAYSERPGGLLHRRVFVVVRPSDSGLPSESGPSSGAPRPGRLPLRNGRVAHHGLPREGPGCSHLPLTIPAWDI
Protocol: (§1) Oocytes were harvested from Xenopus laevis and injected with mRNA transcripts as previously described (Quick and Lester, 1994; Smith et al., 1997). Receptor and chimeric G protein α subunit RNA transcripts were synthesized using the T7 polymerase (“Message Machine,” Ambion) from linearized plasmids or PCR products containing the complete coding region of the genes. Oocytes were injected with 5–25 ng synthetic receptor RNA and incubated for 3–8 days at 17 degrees. Three to eight hours prior to recording, oocytes were injected with 500 pg chimeric Gα subunit mRNA. Dual electrode voltage clamp (Axon Instruments Inc.) was performed using 3 M KCl-filled glass microelectrodes having resistances of 1–2 MOhm. Unless otherwise specified, oocytes were voltage clamped at a holding potential of −80 mV. During recordings, oocytes were bathed in continuously flowing (1–3 ml/min) medium containing 96 mM NaCl, 2 mM KCl, 1.8 mM CaCl2, 1 mM MgCl2, and 5 mM HEPES, pH 7.5 (ND96). Drugs were applied by local perfusion from a 10 μl glass capillary tube fixed at a distance of 0.5 mm from the oocyte. Experiments were carried out at room temperature. All values are expressed as mean±standard error of the mean.

[2] = biological target: T4, Rabbit 5HT1D (Oryctolagus cuniculus, UniProt P49145); test: as above; details: Xenopus oocytes expressing Rabbit 5HT1D and chimera; mean ± s.e.m
T4 construct: linearized plasmids or PCR products containing the complete coding region of the genes; expressed in transfected cells; host or cells: Xenopus laevis oocytes (receptor cRNA injected)
T4 sequence (P49145 whole entry): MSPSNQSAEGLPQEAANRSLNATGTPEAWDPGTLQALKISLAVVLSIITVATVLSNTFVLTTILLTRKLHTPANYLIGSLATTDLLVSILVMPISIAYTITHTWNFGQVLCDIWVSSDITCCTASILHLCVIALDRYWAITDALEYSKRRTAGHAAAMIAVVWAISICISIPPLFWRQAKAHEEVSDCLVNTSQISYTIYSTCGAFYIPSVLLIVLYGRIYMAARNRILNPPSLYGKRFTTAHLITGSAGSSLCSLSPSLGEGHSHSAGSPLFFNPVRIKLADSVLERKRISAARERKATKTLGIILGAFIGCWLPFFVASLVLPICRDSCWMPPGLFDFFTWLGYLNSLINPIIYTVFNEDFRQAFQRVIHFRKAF
Protocol: as §1

[3] = biological target: T1, Rat Y1; test: as above; details: Xenopus oocytes expressing Rat Y1 and chimera; mean ± s.e.m
Protocol: as §1

[4] = biological target: h 5HT1D (Homo sapiens, UniProt P28221); test: Calcium mobilization (FLIPR, Fluo-3) in transfected COS-7 cells; details: h 5HT1D + chimera in COS-7; agonist 5HT, max 100 μM
Chain of h 5HT1D (P28221 whole entry): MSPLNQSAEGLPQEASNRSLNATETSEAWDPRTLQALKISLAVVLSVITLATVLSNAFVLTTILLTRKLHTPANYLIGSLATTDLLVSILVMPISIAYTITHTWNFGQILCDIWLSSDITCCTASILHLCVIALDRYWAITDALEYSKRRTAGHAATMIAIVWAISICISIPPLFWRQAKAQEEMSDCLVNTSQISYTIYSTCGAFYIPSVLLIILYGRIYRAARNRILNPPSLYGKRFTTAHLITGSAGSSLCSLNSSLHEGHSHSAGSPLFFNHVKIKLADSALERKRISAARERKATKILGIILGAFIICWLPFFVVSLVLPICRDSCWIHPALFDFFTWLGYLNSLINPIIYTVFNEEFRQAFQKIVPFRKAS
Protocol: (§2) COS-7 cells were cultured in 225 cm^2 flasks in Dulbecco's Modified Eagle Medium (DMEM) with supplements (10% bovine calf serum, 4 mM glutamine, 100 units/ml penicillin and 100 μg/ml streptomycin) at 37° C., 5% CO2. Stock plates of COS-7 cells were trypsinized and split 1:6 every 3–4 days.
(§3) GPCR and chimeric G protein cDNAs were transiently transfected into COS-7 cells in 150 cm^2 flasks by the DEAE-dextran method (Cullen, 1987), using a total of 20 μg of DNA/˜7×10^6 cells. For evaluating the function of a single chimeric G protein, the standard cDNA transfection ratio was 1:1 (10 μg GPCR cDNA and 10 μg chimeric G protein cDNA). For evaluating the function of a mixture of chimeric G proteins, the standard cDNA transfection ratio was 8:1:1 (16 μg GPCR cDNA, 2 μg Gαq/z cDNA, 2 μg Gαq/s cDNA).
(§4) Twenty four hours after transient transfection, COS-7 cells were seeded into 96-well black wall microtiter plates coated with poly-D-lysine for assay the following day. Just prior to assay, culture medium was aspirated and cells were dye-loaded with 4 μM Fluo-3/0.01% pluronic acid in assay buffer composed of Hank's Balanced Salt Solution (138 mM NaCl, 5 mM KCl, 1.3 mM CaCl2, 0.5 mM MgCl2, 0.4 mM MgSO4, 0.3 mM KH2PO4, 0.3 mM Na2HPO4, 5.6 mM glucose) plus 20 mM HEPES (pH 7.4), 0.1% BSA and 2.5 mM probenicid (100 μl/well) for 1 hour in 5% CO2 at 37° C. After excess dye was discarded, cells were washed in assay buffer and layered with a final volume equal to 100 μl/well. Basal fluorescence was monitored in a fluorometric imaging plate reader (FLIPR™, Molecular Devices) with an excitation wavelength of 488 nm and an emission range of 500 to 560 nm. Laser excitation energy was adjusted so that basal fluorescence readings were approximately 10,000 relative fluorescent units. Cells were stimulated with agonists diluted in assay buffer (50 μl), and relative fluorescent units were measured at defined intervals (exposure=0.4 sec) over a 3 min period at room temperature. Maximum change in fluorescence was calculated for each well. Concentration-response curves derived from the maximum change in fluorescence were analyzed by nonlinear regression (Hill equation).

[5] = biological target: T2, r GALR1; test: as above; details: r GALR1 + chimera in COS-7; agonist GAL, max 10 μM
Protocol: as §2, §3, §4

[6] = tested on: panel of 36 different GPCRs, including Gαi/i-, Gαs-, and Gαq-coupling receptors; test: Detection rate in COS-7 calcium mobilization over a GPCR panel; details: COS-7, single chimera co-transfected with each GPCR
Protocol: as §2
as §3, with “For evaluating the function of a mixture of chimeric G proteins, the standard cDNA transfection ratio was 8:1:1 (16 μg GPCR cDNA, 2 μg Gαq/z cDNA, 2 μg Gαq/s cDNA).” left out
Twenty four hours after transient transfection, COS-7 cells were seeded into 96-well black wall microtiter plates coated with poly-D-lysine for assay the following day. […] Basal fluorescence was monitored in a fluorometric imaging plate reader (FLIPR™, Molecular Devices) with an excitation wavelength of 488 nm and an emission range of 500 to 560 nm. Laser excitation energy was adjusted so that basal fluorescence readings were approximately 10,000 relative fluorescent units. Cells were stimulated with agonists diluted in assay buffer (50 μl), and relative fluorescent units were measured at defined intervals (exposure=0.4 sec) over a 3 min period at room temperature. Maximum change in fluorescence was calculated for each well. […]

Molecule | Response amplitudes (nA) in oocytes [1] | Response amplitudes (nA) in oocytes ([1]; listed as CGαq/z5) | Response amplitudes (nA) in oocytes [2] | Response amplitudes (nA) in oocytes [3] | MAXIMAL SIGNAL (FLUORESCENCE UNITS) [4] | MAXIMAL SIGNAL (FLUORESCENCE UNITS) [5] | receptors generating positive signals (>500 fluorescence units) / receptors tested [6]
B1 | 1258±159 nA | 1258 ± 159 nA | 150 ± 105 nA | 1549 ± 168 nA | 414 fluorescence units | 3086 fluorescence units | 28/36
B2 | 1449 ± 398 nA | – | 34 ± 12 nA | 300 ± 177 nA | 504 fluorescence units | 5947 fluorescence units | 29/36
